Measurements reported in patent US20150344570A1 (published 2015).

T1: FcγRIIb extracellular domain with C-terminal His tag (human, UniProt P31994 43-217)
T1 construct: extracellular domain; Soluble receptor expressed in FreeStyle293 cells, used as analyte in Biacore; also called FcgRIIb; 2b
T1 sequence (looked up): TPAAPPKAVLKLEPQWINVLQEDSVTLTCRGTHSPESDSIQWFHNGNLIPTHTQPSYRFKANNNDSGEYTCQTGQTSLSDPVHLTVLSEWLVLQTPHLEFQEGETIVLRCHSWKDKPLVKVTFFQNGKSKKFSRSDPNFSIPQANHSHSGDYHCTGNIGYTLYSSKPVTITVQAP

B1: GpH7-A5/GpH7-B3 variant S298_14T/GpL16-k0 (antibody, human IgG1, kappa)
heavy 1: not shown
heavy 2: not shown
light: DIVMTQSPLSLPVTPGEPASISCQASESLVHSNRNTYLHWYLQKPGQSPQLLIYKVSNRFSGVPDRFSGSGSGTDFTLKISRVEAEDVGVYYCSQNTHVPPTFGQGTKVEIERTVAAPSVFIFPPSDEQLKSGTASVVCLLNNFYPREAKVQWKVDNALQSGNSQESVTEQDSKDSTYSLSSTLTLSKADYEKHKVYACEVTHQGLSSPVTKSFNRGEC
notes: one H chain altered; also called He Ab S298_14T
B2: GpH7-A5/GpH7-B3 variant S337_18N/GpL16-k0 (antibody, human IgG1, kappa)
heavy 1: not shown
heavy 2: not shown
light: B1 light
notes: one H chain altered; also called He Ab S337_18N
B3: GpH7-A5/GpH7-B3 variant S324_16H/GpL16-k0 (antibody, human IgG1, kappa)
heavy 1: not shown
heavy 2: not shown
light: B1 light
notes: one H chain altered; also called He Ab S324_16H
B4: GpH7-A5/GpH7-B3 variant S324_15Y/GpL16-k0 (antibody, human IgG1, kappa)
heavy 1: not shown
heavy 2: not shown
light: B1 light
notes: one H chain altered; also called He Ab S324_15Y
B5: GpH7-A5/GpH7-B3 variant S337_10E/GpL16-k0 (antibody, human IgG1, kappa)
heavy 1: not shown
heavy 2: not shown
light: B1 light
notes: one H chain altered; also called He Ab S337_10E
B6: GpH7-A5/GpH7-B3 variant S337_09D/GpL16-k0 (antibody, human IgG1, kappa)
heavy 1: not shown
heavy 2: not shown
light: B1 light
notes: one H chain altered; also called He Ab S337_09D
B7: GpH7-A5/GpH7-B3 variant T335_07I/GpL16-k0 (antibody, human IgG1, kappa)
heavy 1: not shown
heavy 2: not shown
light: B1 light
notes: one H chain altered; also called He Ab T335_07I
B8: GpH7-A5/GpH7-B3 variant T335_10E/GpL16-k0 (antibody, human IgG1, kappa)
heavy 1: not shown
heavy 2: not shown
light: B1 light
notes: one H chain altered; also called He Ab T335_10E
B9: GpH7-A5/GpH7-B3 variant S298_02A/GpL16-k0 (antibody, human IgG1, kappa)
heavy 1: not shown
heavy 2: not shown
light: B1 light
notes: Heterodimerized anti-glypican-3 IgG1; mutation in the GpH7-B3 chain only; also called He Ab
B10: GpH7-A5/GpH7-B3 variant A330_06M/GpL16-k0 (antibody, human IgG1, kappa)
heavy 1: not shown
heavy 2: not shown
light: B1 light
notes: as for B9
B11: GpH7-A5/GpH7-B3 variant K334_02A/GpL16-k0 (antibody, human IgG1, kappa)
heavy 1: not shown
heavy 2: not shown
light: B1 light
notes: as for B9
B12: GpH7-A5/GpH7-B3 variant A330_10E/GpL16-k0 (antibody, human IgG1, kappa)
heavy 1: not shown
heavy 2: not shown
light: B1 light
notes: as for B9
B13: GpH7-A5/GpH7-B3 variant E333_02A/GpL16-k0 (antibody, human IgG1, kappa)
heavy 1: not shown
heavy 2: not shown
light: B1 light
notes: as for B9
B14: GpH7-A5/GpH7-B3 variant K334_04F/GpL16-k0 (antibody, human IgG1, kappa)
heavy 1: not shown
heavy 2: not shown
light: B1 light
notes: as for B9
B15: GpH7-A5/GpH7-B3 variant K334_06M/GpL16-k0 (antibody, human IgG1, kappa)
heavy 1: not shown
heavy 2: not shown
light: B1 light
notes: as for B9
B16: GpH7-A5/GpH7-B3 variant A330_04F/GpL16-k0 (antibody, human IgG1, kappa)
heavy 1: not shown
heavy 2: not shown
light: B1 light
notes: as for B9
B17: GpH7-A5/GpH7-B3 variant K334_07I/GpL16-k0 (antibody, human IgG1, kappa)
heavy 1: not shown
heavy 2: not shown
light: B1 light
notes: as for B9
B18: GpH7-A5/GpH7-B3 variant I332_09D/GpL16-k0 (antibody, human IgG1, kappa)
heavy 1: not shown
heavy 2: not shown
light: B1 light
notes: as for B9
B19: GpH7-A5/GpH7-B3 variant E333_01G/GpL16-k0 (antibody, human IgG1, kappa)
heavy 1: not shown
heavy 2: not shown
light: B1 light
notes: as for B9
B20: GpH7-A5/GpH7-B3 variant A330_20W/GpL16-k0 (antibody, human IgG1, kappa)
heavy 1: not shown
heavy 2: not shown
light: B1 light
notes: as for B9
B21: GpH7-A5/GpH7-B3 variant I332_12R/GpL16-k0 (antibody, human IgG1, kappa)
heavy 1: not shown
heavy 2: not shown
light: B1 light
notes: as for B9
B22: GpH7-A5/GpH7-B3 variant K334_05P/GpL16-k0 (antibody, human IgG1, kappa)
heavy 1: not shown
heavy 2: not shown
light: B1 light
notes: as for B9
B23: GpH7-A5/GpH7-B3 variant A330_08L/GpL16-k0 (antibody, human IgG1, kappa)
heavy 1: not shown
heavy 2: not shown
light: B1 light
notes: as for B9
B24: GpH7-A5/GpH7-B3 variant A330_07I/GpL16-k0 (antibody, human IgG1, kappa)
heavy 1: not shown
heavy 2: not shown
light: B1 light
notes: as for B9
B25: GpH7-A5/GpH7-B3 variant E333_13S/GpL16-k0 (antibody, human IgG1, kappa)
heavy 1: not shown
heavy 2: not shown
light: B1 light
notes: as for B9
B26: GpH7-A5/GpH7-B3 variant I332_10E/GpL16-k0 (antibody, human IgG1, kappa)
heavy 1: not shown
heavy 2: not shown
light: B1 light
notes: as for B9
B27: GpH7-A5/GpH7-B3 variant A330_15Y/GpL16-k0 (antibody, human IgG1, kappa)
heavy 1: not shown
heavy 2: not shown
light: B1 light
notes: as for B9
B28: GpH7-A5/GpH7-B3 variant E333_16H/GpL16-k0 (antibody, human IgG1, kappa)
heavy 1: not shown
heavy 2: not shown
light: B1 light
notes: as for B9
B29: GpH7-A5/GpH7-B3 variant A330_03V/GpL16-k0 (antibody, human IgG1, kappa)
heavy 1: not shown
heavy 2: not shown
light: B1 light
notes: as for B9
B30: GpH7-A5/GpH7-B3 variant K334_01G/GpL16-k0 (antibody, human IgG1, kappa)
heavy 1: not shown
heavy 2: not shown
light: B1 light
notes: as for B9
B31: GpH7-A5/GpH7-B3 variant A327_11K/GpL16-k0 (antibody, human IgG1, kappa)
heavy 1: not shown
heavy 2: not shown
light: B1 light
notes: as for B9
B32: GpH7-A5/GpH7-B3 variant I332_01G/GpL16-k0 (antibody, human IgG1, kappa)
heavy 1: not shown
heavy 2: not shown
light: B1 light
notes: as for B9

These binders were tested against FcγRIIIa extracellular domain with C-terminal His tag (human, UniProt P08637 17-208) (assay: SPR (Biacore), one H chain altered; HeCon Ab GpH7-A5/GpH7-B3/GpL16-k0 = 100).
Target sequence in this assay (P08637 17-208): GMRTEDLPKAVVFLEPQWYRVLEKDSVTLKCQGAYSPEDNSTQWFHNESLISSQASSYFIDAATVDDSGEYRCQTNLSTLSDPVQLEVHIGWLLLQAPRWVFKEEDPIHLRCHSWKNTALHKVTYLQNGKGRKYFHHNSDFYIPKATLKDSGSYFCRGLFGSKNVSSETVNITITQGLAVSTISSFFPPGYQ

Binder | He/Con_3a [%]
B1 | 113
B2 | 104
B3 | 104
B4 | 101
B5 | 105
B6 | 110
B7 | 107
B8 | 107

Each binder was assayed against T2, FcγRIIIa extracellular domain with C-terminal His tag (human, UniProt P08637 17-208) (assay: SPR (Biacore), antibody captured on antigen peptide chip, FcγR as analyte; GpH7-A5/GpH7-B3/GpL16-k0 = 100).
T2 construct: extracellular domain; also called FcgRIIIa; 3a
Procedure: (§1) The heterodimerized antibodies He Abs in which one of the H chains was introduced with an alteration were assayed for their binding activities to each activating FcγR and inhibitory FcγR according to the method described in Example 4. […] The activating FcγRs in FIGS. 26, 27, 28, and 29 are FcγRIa, FcγRIIa (R), FcγRIIa (H), and FcγRIIIa, respectively.
(§2) Analysis of interaction between objective antibody and the FcγR was carried out using Biacore T100 (GE Healthcare). HBS-EP+ (GE Healthcare) was used as the running buffer, and the measurement temperature was set to 25° C. Chips produced by immobilizing the antigen peptide by the amine coupling method to a Series S Sencor Chip CM5 (GE Healthcare), or alternatively, chips produced by allowing preliminarily biotinylated antigen peptides to interact with and immobilize onto a Series S Sensor Chip SA (certified) (GE Healthcare) were used. Antibodies of interest were captured onto an antigen peptide-immobilized chip, and allowed to interact to each FcγR diluted with running buffer. To regenerate and repeatedly use the chip, the antibodies captured on the chip were washed off by reacting 10 mM glycine-HCl, pH 1.5.
T2 sequence (P08637 17-208): as above

Binder | He/Con_3a (relative binding activity)
B9 | 160 % of control
B10 | 142 % of control
B11 | 147 % of control
B12 | 84.6 % of control
B13 | 105 % of control
B14 | 148 % of control
B15 | 144 % of control
B16 | 147 % of control
B17 | 151 % of control
B18 | 207 % of control
B19 | 98.2 % of control
B20 | 104 % of control
B21 | 75.9 % of control
B22 | 134 % of control
B23 | 124 % of control
B24 | 103 % of control
B25 | 103 % of control
B26 | 233 % of control
B27 | 125 % of control
B28 | 103 % of control
B29 | 101 % of control
B30 | 121 % of control
B31 | 31.7 % of control
B32 | 111 % of control

What follows are binders tested against T1, FcγRIIb extracellular domain with … in the same assay as above.
Procedure: as §1, §2

Binder | He/Con_2b (relative binding activity)
B9 | 73.4 % of control
B10 | 80.5 % of control
B11 | 108 % of control
B12 | 70.1 % of control
B13 | 83.8 % of control
B14 | 111 % of control
B15 | 109 % of control
B16 | 92.8 % of control
B17 | 119 % of control
B18 | 147 % of control
B19 | 81.4 % of control
B20 | 76.1 % of control
B21 | 48.9 % of control
B22 | 105 % of control
B23 | 70.5 % of control
B24 | 67.1 % of control
B25 | 81.8 % of control
B26 | 142 % of control
B27 | 95 % of control
B28 | 83.3 % of control
B29 | 52.4 % of control
B30 | 92.5 % of control
B31 | 12.5 % of control
B32 | 87.1 % of control

What follows are binders tested against T2, FcγRIIIa extracellular domain with … (assay: SPR (Biacore); He/Con_3a divided by He/Con_2b (FcγRIIIa against FcγRIIb)).
Procedure: as §1, §2

Binder | He_3a/2b (IIIa/IIb) [ratio]
B9 | 2.18
B10 | 1.76
B11 | 1.37
B12 | 1.21
B13 | 1.26
B14 | 1.33
B15 | 1.33
B16 | 1.59
B17 | 1.27
B18 | 1.41
B19 | 1.21
B20 | 1.37
B21 | 1.55
B22 | 1.27
B23 | 1.77
B24 | 1.53
B25 | 1.26
B26 | 1.63
B27 | 1.32
B28 | 1.24
B29 | 1.93
B30 | 1.31
B31 | 2.53
B32 | 1.27
